Results on 1 molecule are retold here after article PMC9888390 (2023).

The target in this assay is Recombinant HSV-1 glycoprotein B, soluble ectodomain (HSV-1). Kind of assay: Luminex binding assay.

B1: BMPC-23 recombinant mouse IgG (antibody, V domains shown)
VH: QVQLQQSGPELVKPGASVKLSCKASGYSFTTYDINWVKERPGQGLEWIGWIYPREGSTNYNEKFRGKATLTADTSSSTAYMELHSLTSEDSAVYFCATYGSSRYYTMDYWGQGTSVTVSS
VL: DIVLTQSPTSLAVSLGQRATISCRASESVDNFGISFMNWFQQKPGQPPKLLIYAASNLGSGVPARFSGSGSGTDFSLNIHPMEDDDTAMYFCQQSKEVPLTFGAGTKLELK
For B1, the concentration giving a half-maximal response (EC50) is 3.5 ng/mL.

One may read the EC50 as the concentration giving half of the maximal effect.
